Reference: PMC5839545, “CENP-C/H/I/K/M/T/W/N/L and hMis12 but not CENP-S/X participate in complex formation in the nucleoplasm of living human interphase cells outside centromeres” (PLoS ONE, 2018)

What was measured:
Details in all cases: partners not purified
[1] = molecular target: T1, mCherry-(s)-CENP-K (human, UniProt Q9BS16 1-269); test: dual color fluorescence cross-correlation spectroscopy (DC-FCCS); EGFP and mCherry fusion proteins co-expressed in living interphase HEp-2 or U2OS cells; spots in the nucleoplasm free of kinetochores, focal volume bleached before; 37°C; 488 and 561 nm; corrected values are the measured ones times about two
T1 construct: CENP-K, human; also called mCherry-CENP-K; source: HEp-2 or U2OS cells, transfected by electroporation, in living cells

[2] = molecular target: T2, Nnf1-(s)-mCherry (human, UniProt Q6P1K2 1-205); test: as above
T2 construct: Nnf1 of the hMis12 complex, human; source: HEp-2 or U2OS cells, transfected by electroporation, in living cells; not shown: mCherry (short linker)
T2 sequence (looked up): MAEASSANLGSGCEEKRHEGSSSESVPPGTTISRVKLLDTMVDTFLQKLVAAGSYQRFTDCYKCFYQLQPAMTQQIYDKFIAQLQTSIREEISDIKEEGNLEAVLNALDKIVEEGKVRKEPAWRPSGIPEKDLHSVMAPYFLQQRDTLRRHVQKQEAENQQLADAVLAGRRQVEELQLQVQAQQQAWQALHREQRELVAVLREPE

[3] = molecular target: T3, CENP-T-(s)-mCherry (human, UniProt Q96BT3 1-561); test: as above
T3 construct: CENP-T, human; called full-length CENP-T against its N-terminal domain; source: HEp-2 or U2OS cells, transfected by electroporation, in living cells; not shown: mCherry (short linker)

[4] = molecular target: T4, mCherry-(s)-CENP-T (human, UniProt Q96BT3 1-561); test: as above
T4 construct: CENP-T, human; called wildtype against CENP-T^∆N; source: HEp-2 or U2OS cells (DC-FCCS) and HEK293 cells (SW-FCCS), transfected by electroporation, in living cells

[5] = molecular target: T5, mCherry-(s)-Nsl1 (human, UniProt Q96IY1 1-281); test: as above
T5 construct: Nsl1 of the hMis12 complex, human; source: HEp-2 or U2OS cells, transfected by electroporation, in living cells
T5 sequence (looked up): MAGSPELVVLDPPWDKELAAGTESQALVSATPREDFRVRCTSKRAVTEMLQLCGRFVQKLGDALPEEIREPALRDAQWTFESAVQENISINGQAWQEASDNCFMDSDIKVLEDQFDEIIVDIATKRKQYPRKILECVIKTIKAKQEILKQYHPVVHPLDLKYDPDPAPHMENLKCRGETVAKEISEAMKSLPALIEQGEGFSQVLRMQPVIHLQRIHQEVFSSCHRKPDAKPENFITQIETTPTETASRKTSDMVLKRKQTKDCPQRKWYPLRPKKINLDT

[6] = molecular target: T6, mCherry-(s)-Nnf1 (human, UniProt Q6P1K2 1-205); test: as above
T6 construct: Nnf1 of the hMis12 complex, human; source: HEp-2 or U2OS cells, transfected by electroporation, in living cells
T6 sequence (looked up): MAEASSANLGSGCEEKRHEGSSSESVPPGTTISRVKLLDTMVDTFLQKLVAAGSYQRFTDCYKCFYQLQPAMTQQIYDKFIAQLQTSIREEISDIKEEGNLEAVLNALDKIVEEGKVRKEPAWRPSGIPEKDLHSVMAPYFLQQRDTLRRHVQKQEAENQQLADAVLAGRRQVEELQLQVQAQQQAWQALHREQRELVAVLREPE

[7] = molecular target: T7, hMis12-(s)-mCherry (human, UniProt Q9H081 1-205); test: as above
T7 construct: hMis12, human; source: HEp-2 or U2OS cells, transfected by electroporation, in living cells; not shown: mCherry (short linker)
T7 sequence (looked up): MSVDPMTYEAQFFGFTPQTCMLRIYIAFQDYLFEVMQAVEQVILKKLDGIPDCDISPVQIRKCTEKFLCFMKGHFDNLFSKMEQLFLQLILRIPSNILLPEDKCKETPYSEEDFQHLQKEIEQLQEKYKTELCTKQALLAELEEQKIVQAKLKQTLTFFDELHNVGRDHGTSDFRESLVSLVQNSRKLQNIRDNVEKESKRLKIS

[8] = molecular target: T8, mCherry-(s)-CENP-W (human, UniProt Q5EE01 1-88); test: single-wavelength fluorescence cross-correlation spectroscopy (SW-FCCS); EGFP and mCherry fusion proteins co-expressed in living interphase HEK293 cells; nucleoplasm; 37°C; 514 nm; effective (apparent) Kd from scatter plot (S) or histogram (H), corrected for non-fluorescent mCherry and observation volumes
T8 construct: CENP-W, human; source: HEp-2 or U2OS cells (DC-FCCS) and HEK293 cells (SW-FCCS), transfected by electroporation, in living cells
T8 sequence (Q5EE01 whole entry, the tested form may be a part): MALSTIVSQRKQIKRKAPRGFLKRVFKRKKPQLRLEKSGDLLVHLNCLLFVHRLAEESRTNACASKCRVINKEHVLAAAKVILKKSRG

T1 sequence (Q9BS16 whole entry, the tested form may be a part): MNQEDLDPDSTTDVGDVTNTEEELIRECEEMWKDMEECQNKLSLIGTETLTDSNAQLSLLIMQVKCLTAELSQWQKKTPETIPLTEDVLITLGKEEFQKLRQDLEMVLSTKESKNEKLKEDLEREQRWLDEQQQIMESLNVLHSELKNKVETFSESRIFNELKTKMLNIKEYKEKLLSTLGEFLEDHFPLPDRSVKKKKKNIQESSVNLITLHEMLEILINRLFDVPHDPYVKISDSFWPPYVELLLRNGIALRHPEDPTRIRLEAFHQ

B1: hMis12-(s)-EGFP (natural protein, human, UniProt Q9H081 1-205, looked up)
chain: MSVDPMTYEAQFFGFTPQTCMLRIYIAFQDYLFEVMQAVEQVILKKLDGIPDCDISPVQIRKCTEKFLCFMKGHFDNLFSKMEQLFLQLILRIPSNILLPEDKCKETPYSEEDFQHLQKEIEQLQEKYKTELCTKQALLAELEEQKIVQAKLKQTLTFFDELHNVGRDHGTSDFRESLVSLVQNSRKLQNIRDNVEKESKRLKIS
notes: hMis12, human; source: HEp-2 or U2OS cells, transfected by electroporation, in living cells; not shown: EGFP (short linker)
cross-correlation, measured (%) [1]: 18%
cross-correlation, measured (%) [2]: 31%
cross-correlation, measured (%) [3]: 19%
cross-correlation, measured (%) [4]: 18%

B2: EGFP-(s)-Dsn1 (natural protein, human, UniProt Q9H410 1-356, looked up)
chain: MTSVTRSEIIDEKGPVMSKTHDHQLESSLSPVEVFAKTSASLEMNQGVSEERIHLGSSPKKGGNCDLSHQERLQSKSLHLSPQEQSASYQDRRQSWRRASMKETNRRKSLHPIHQGITELSRSISVDLAESKRLGCLLLSSFQFSIQKLEPFLRDTKGFSLESFRAKASSLSEELKHFADGLETDGTLQKCFEDSNGKASDFSLEASVAEMKEYITKFSLERQTWDQLLLHYQQEAKEILSRGSTEAKITEVKVEPMTYLGSSQNEVLNTKPDYQKILQNQSKVFDCMELVMDELQGSVKQLQAFMDESTQCFQKVSVQLGKRSMQQLDPSPARKLLKLQLQNPPAIHGSGSGSCQ
notes: Dsn1 of the hMis12 complex, human; source: HEp-2 or U2OS cells, transfected by electroporation, in living cells
cross-correlation, measured (%) [5]: 24%
cross-correlation, measured (%) [6]: 22%
cross-correlation, measured (%) [7]: 32%

B3: EGFP-(s)-Nsl1 (natural protein, human, UniProt Q96IY1 1-281, looked up)
chain: MAGSPELVVLDPPWDKELAAGTESQALVSATPREDFRVRCTSKRAVTEMLQLCGRFVQKLGDALPEEIREPALRDAQWTFESAVQENISINGQAWQEASDNCFMDSDIKVLEDQFDEIIVDIATKRKQYPRKILECVIKTIKAKQEILKQYHPVVHPLDLKYDPDPAPHMENLKCRGETVAKEISEAMKSLPALIEQGEGFSQVLRMQPVIHLQRIHQEVFSSCHRKPDAKPENFITQIETTPTETASRKTSDMVLKRKQTKDCPQRKWYPLRPKKINLDT
notes: Nsl1 of the hMis12 complex, human; source: HEp-2 or U2OS cells, transfected by electroporation, in living cells
cross-correlation, measured (%) [6]: 18%

B4: Nsl1-(s)-EGFP (natural protein, human, UniProt Q96IY1 1-281, looked up)
chain: MAGSPELVVLDPPWDKELAAGTESQALVSATPREDFRVRCTSKRAVTEMLQLCGRFVQKLGDALPEEIREPALRDAQWTFESAVQENISINGQAWQEASDNCFMDSDIKVLEDQFDEIIVDIATKRKQYPRKILECVIKTIKAKQEILKQYHPVVHPLDLKYDPDPAPHMENLKCRGETVAKEISEAMKSLPALIEQGEGFSQVLRMQPVIHLQRIHQEVFSSCHRKPDAKPENFITQIETTPTETASRKTSDMVLKRKQTKDCPQRKWYPLRPKKINLDT
notes: Nsl1 of the hMis12 complex, human; source: HEp-2 or U2OS cells, transfected by electroporation, in living cells; not shown: EGFP (short linker)
cross-correlation, measured (%) [7]: 36%

B5: EGFP-(s)-CENP-T^∆N (domain or fragment, human, UniProt Q96BT3 396-561, looked up)
chain: ASPESASSTPESLQARRHHQFLEPAPAPGAAVLSSEPAEPLLVRHPPRPRTTGPRPRQDPHKAGLSHYVKLFSFYAKMPMERKALEMVEKCLDKYFQHLCDDLEVFAAHAGRKTVKPEDLELLMRRQGLVTDQVSLHVLVERHLPLEYRQLLIPCAYSGNSVFPAQ
notes: CENP-T, human, C-terminal domain, aas 396-561, said to contain the histone-fold domain (aas 376-561); also called EGFP-(s)-CENP-T^396-561; source: HEK293 cells, transfected by electroporation, in living cells
dimer, corrected (%) [8]: 24%
dimer, uncorrected (%) [8]: 18.2%
